Experimental data as given in patent US20170306033A1 (Amgen, published 2017).
Substitutions are numbered along the chain they refer to.

T1: human PAC1 receptor (human, UniProt P41586 21-468)
T1 sequence: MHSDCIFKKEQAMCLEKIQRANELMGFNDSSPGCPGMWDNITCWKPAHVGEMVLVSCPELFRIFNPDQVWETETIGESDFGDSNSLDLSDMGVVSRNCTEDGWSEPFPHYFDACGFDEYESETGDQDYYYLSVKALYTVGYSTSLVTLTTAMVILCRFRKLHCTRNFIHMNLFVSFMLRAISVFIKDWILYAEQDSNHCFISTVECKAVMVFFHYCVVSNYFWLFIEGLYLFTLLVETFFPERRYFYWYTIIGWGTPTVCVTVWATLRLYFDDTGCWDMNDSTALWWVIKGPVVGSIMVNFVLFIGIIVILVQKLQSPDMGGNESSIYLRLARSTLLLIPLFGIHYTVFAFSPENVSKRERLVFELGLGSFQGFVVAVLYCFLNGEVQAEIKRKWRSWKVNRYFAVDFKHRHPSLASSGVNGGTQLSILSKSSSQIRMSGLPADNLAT

B1: iPS:327291 (bispecific antibody, human IgG1, kappa, lambda, N297G)
light 1: EIVLTQSPATLSLSPGERATLSCRASQSVGRSLHWYQQKPGQAPRLLIKYASQSLSGIPARFSGSGSGTDFTLTISSLEPEDFAVYYCHQSSRLPFTFGPGTKVDIKRTVAAPSVFIFPPSDEQLKSGTASVVCLLNNFYPREAKVQWKVDNALQSGNSQESVTEQDSKDSTYSLESTLTLSKADYEKHKVYACEVTHQGLSSPVTKSFNRGEC
heavy 1: not shown
light 2: QSVLTQPPSVSAAPGQKVTISCSGSSSNIGNNYVSWYQQLPGTAPKLLIYDNNKRPSGIPDRFSGSKSGTSTTLGITGLQTGDEADYYCGTWDSRLSAVVFGGGTKLTVLGQPKANPTVTLFPPSSEELQANKATLVCLISDFYPGAVTVAWKADGSPVKAGVETTKPSKQSNNKYAAKSYLSLTPEQWKSHRSYSCQVTHEGSTVEKTVAPTECS
heavy 2: QVQLVESGGGVVQPGRSLRLSCAASGFTFSSFGMHWVRQAPGKGLEWVAVISFDGSIKYSVDSVKGRFTISRDNSKNTLFLQMNSLRAEDTAVYYCARDRLNYYDSSGYYHYKYYGMAVWGQGTTVTVSSASTKGPSVFPLAPSSKSTSGGTAALGCLVKDYFPEPVTVSWNSGALTSGVHTFPAVLQSSGLYSLESVVTVPSSSLGTQTYICNVNHKPSNTKVDKKVEPKSCDKTHTCPPCPAPELLGGPSVFLFPPKPKDTLMISRTPEVTCVVVDVSHEDPEVKFNWYVDGVEVHNAKTKPCEEQYGSTYRCVSVLTVLHQDWLNGKEYKCKVSNKALPAPIEKTISKAKGQPREPQVYTLPPSRKKMTKNQVSLTCLVKGFYPSDIAVEWESNGQPENNYKTTPPVLKSDGSFFLYSKLTVDKSRWQQGNVFSCSVMHEALHNHYTQKSLSLSPGK
B2: iPS:327681 (bispecific antibody, human IgG1, kappa, N297G)
light 1: DIQMTQSPSSLSASVGDRITITCRASQSISRYLNWYQQKPGKAPKLLIYAASSLQSGIPSRFSGSGSGTDFTLTINSLQPEDFATYFCQQSYSPPFTFGEGTKVDIKRTVAAPSVFIFPPSDEQLKSGTASVVCLLNNFYPREAKVQWKVDNALQSGNSQESVTEQDSKDSTYSLESTLTLSKADYEKHKVYACEVTHQGLSSPVTKSFNRGEC
heavy 1: not shown
light 2: EIVLTQSPGTLSLSPGERATLSCRASQSVSSGYLTWYQQKPGQAPRLLIYGASSRATGIPDRFSGSGSGTDFTLTISRLEPEDFAVYYCQQYGNSLSRFGKGTKLEIKRTVAAPSVFIFPPSDEQLKSGTASVVCLLNNFYPREAKVQWKVDNALQSGNSQESVTEQDSKDSTYSLKSTLTLSKADYEKHKVYACEVTHQGLSSPVTKSFNRGEC
heavy 2: QVQLVESGGGVVQPGRSLRLSCAASGFTFSSYGMHWVRQAPGKELEWVAVIWYDGSNKYYAESVKGRFIISRDKSKNTLYLQMNSLRAEDTAVYYCARAGGIAAAGLYYYYGMDVWGQGTTVTVSSASTKGPSVFPLAPSSKSTSGGTAALGCLVKDYFPEPVTVSWNSGALTSGVHTFPAVLQSSGLYSLESVVTVPSSSLGTQTYICNVNHKPSNTKVDKKVEPKSCDKTHTCPPCPAPELLGGPSVFLFPPKPKDTLMISRTPEVTCVVVDVSHEDPEVKFNWYVDGVEVHNAKTKPCEEQYGSTYRCVSVLTVLHQDWLNGKEYKCKVSNKALPAPIEKTISKAKGQPREPQVYTLPPSRKEMTKNQVSLTCLVKGFYPSDIAVEWESNGQPENNYKTTPPVLKSDGSFFLYSKLTVDKSRWQQGNVFSCSVMHEALHNHYTQKSLSLSPGK
B3: iPS:327683 (bispecific antibody, human IgG1, kappa, N297G)
light 1: DIQLTQSPSFLSASVGDRVTITCRASQSIGRSLHWYQQKPGKAPKLLIKYASQSLSGVPSRFSGSGSGTEFTLTISSLQPEDFATYYCHQSSRLPFTFGEGTKVDIKRTVAAPSVFIFPPSDEQLKSGTASVVCLLNNFYPREAKVQWKVDNALQSGNSQESVTEQDSKDSTYSLESTLTLSKADYEKHKVYACEVTHQGLSSPVTKSFNRGEC
heavy 1: not shown
light 2: B2 light 2
heavy 2: B2 heavy 2
B4: iPS:327677 (bispecific antibody, human IgG1, kappa, N297G)
light 1: not shown
heavy 1: not shown
light 2: B2 light 2 with K101Q
heavy 2: not shown
B5: iPS:327682 (bispecific antibody, human IgG1, kappa, N297G)
light 1: not shown
heavy 1: not shown
light 2: B2 light 2
heavy 2: B2 heavy 2
B6: iPS:327678 (bispecific antibody, human IgG1, kappa, N297G)
light 1: not shown
heavy 1: not shown
light 2: B2 light 2 with K101Q
heavy 2: not shown
B7: iPS:326631 (bispecific antibody, human IgG2, kappa, lambda)
light 1: not shown
heavy 1: QVQLQQSGPGLVKPSQTLSLTCAISGDSVSSNSATWNWIRQSPSRGLEWLGRTYYRSKWSNHYAVSVKSRITINPDTSKSQFSLQLNSVTPEDTAVYYCARGTWKQLWFLDHWGQGTLVTVSSASTKGPSVFPLAPCSRSTSESTAALGCLVKDYFPEPVTVSWNSGALTSGVHTFPAVLQSSGLYSLKSVVTVPSSNFGTQTYTCNVDHKPSNTKVDKTVERKCCVECPPCPAPPVAGPSVFLFPPKPKDTLMISRTPEVTCVVVDVSHEDPEVQFNWYVDGVEVHNAKTKPREEQFNSTFRVVSVLTVVHQDWLNGKEYKCKVSNKGLPAPIEKTISKTKGQPREPQVYTLPPSREEMTKNQVSLTCLVDGFYPSDIAVEWESNGQPENNYDTTPPMLDSDGSFFLYSDLTVDKSRWQQGNVFSCSVMHEALHNHYTQKSLSLSPGK
light 2: not shown
heavy 2: not shown

What was measured:
[1] = molecular target: human CGRP receptor (human, UniProt Q16602 23-461; O60894 27-148); experiment: cell-based or functional assay
[2] = molecular target: T1, human PAC1 receptor; experiment: cell-based or functional assay

Sequence of human CGRP receptor (Q16602 23-461 limits assumed, chain 1 of 2): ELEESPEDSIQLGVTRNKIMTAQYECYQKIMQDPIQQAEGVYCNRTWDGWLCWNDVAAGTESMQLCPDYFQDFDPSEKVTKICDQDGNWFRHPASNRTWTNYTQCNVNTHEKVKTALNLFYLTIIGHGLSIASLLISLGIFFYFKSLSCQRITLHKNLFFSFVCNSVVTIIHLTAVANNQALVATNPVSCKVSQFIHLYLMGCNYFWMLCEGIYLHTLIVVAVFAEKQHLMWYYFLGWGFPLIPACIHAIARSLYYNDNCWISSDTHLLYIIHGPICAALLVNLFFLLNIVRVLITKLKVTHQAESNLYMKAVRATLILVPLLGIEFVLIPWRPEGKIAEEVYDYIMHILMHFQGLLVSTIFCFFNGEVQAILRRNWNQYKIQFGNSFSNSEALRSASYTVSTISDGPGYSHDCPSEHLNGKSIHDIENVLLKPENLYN
Sequence of human CGRP receptor (O60894 27-148 limits assumed, chain 2 of 2): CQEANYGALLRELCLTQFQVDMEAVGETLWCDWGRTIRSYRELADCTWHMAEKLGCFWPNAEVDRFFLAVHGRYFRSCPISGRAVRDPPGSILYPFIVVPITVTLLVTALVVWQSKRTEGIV

Binder | % inhibition of human CGRPR [1] | % inhibition of human PAC1 [2]
B1 | 70% | 89%
B2 | 72% | 73%
B3 | 70% | 30%
B4 | 81% | 43%
B5 | 75% | 12%
B6 | 84% | 43%
B7 | 89% | 79%
